Measured values: article PMC5851990 (2018)

Experiments:
[1] = target: chicken Ten2^ecto wild type (residues 596-2802) (chicken, UniProt Q9DER5 596-2802); experiment: SPR
[2] = target: chicken Ten2^ecto P1680L mutant (residues 596-2802) (chicken, UniProt Q9DER5 596-2802, P1680L); experiment: SPR

B1: mouse Lphn2^Lec (Latrophilin 2 lectin domain, residues 30-137) (domain or fragment)
chain: ALPFGLVRRELSCEGYSIDLRCPGSDVIMIESANYGRTDDKICDADPFQMENTDCYLPDAFKIMTQRCNNRTQCIVVTGSDVFPDPCPGTYKYLEVQYECVPYSKMLV
modifications: biotinylated enzymatically in vivo at a C-terminal AviTag
Kd [1]: 790 nM | Kd [2]: 740 nM
